According to the DeepSol protein solubility set:

Test: soluble on expression in E. coli; label from the status in PepcDB or PDB records

Row | Sequence | soluble on expression in E. coli
1 | MAHHHHHHMRVLSLLSALCLVSTCRGHRNLFARNNYLQYLRSQNFMQEKPKFQKLNQNYSEDLNEFDNYEDDELDAENVEATSKERVTQKSGTSSSSSENKLEFKNIEKELNNMGEILHEEKDNLLLMGGGRECSVSDKGTLDVSLNSGDIFNLTKYTVEMSSSGILIRDTQNSNVVKEIAFDTVKLPIETIEETRECWKIRSHKETFLFCERSKEARDRWITNMLKALFCYNTNNLTIDEGVQTGLSSKVDIPKESTVDARIAASLKDEPNGSGDNSSHGRAKRKGNNNITISNLKNDKPEIVVN | not soluble
2 | MGSSHHHHHHGSLSKQIPLGIYEKALPAGECWLERLQLAKTLGFDFVEMSVDETDERLSRLDWSREQRLALVNAIVETGVRVPSMCLSAHRRFPLGSEDDAVRAQGLEIMRKAIQFAQDVGIRVIQLAGYDVYYQEANNETRRRFRDGLKESVEMASRAQVTLAMEIMDYPLMNSISKALGYAHYLNNPWFQLYPDIGNLSAWDNDVQMELQAGIGHIVAVHVKDTKPGVFKNVPFGEGVVDFERCFETLKQSGYCGPYLIEMWSETAEDPAAEVAKARDWVKARMAKAGMVEAA | soluble
3 | MRRKMERIALIEDDKDLAFLVKLNLEREGFEVEHFERATPFFKFISENSVDLILIDIMLPDLDGFRIANFLKSRADLKEIPVIFITAKGEEEDKLKGFELGADDYITKPFSMKELIARVRAVLKRYKKVSESKVLKYEGVELDTERQKLFVDGREVYLTPAEFKILKTLMENFGRPVSRSSLVEKLWDYERETTERAIDVHVKHIRDKLGKYKGLIKTVRGVGYKFEN | soluble
4 | MGIMELARIDLSRDDLDKRIGGGIPHGSLIIIEGEESTGKSVLCQRLAYGFLQNRYSVTYVSTQLTTLEFIKQMNSLNYSINKKLLSGALLYIPVYPLIADNKKKDGFLKKVMETRAFYEKDVIIFDSISALIANDASEVNVDDLMAFFKRITALKKIIICTVNPKELPESVLTIIRTSATMLIRTELFTFGGDLKNLAKILKYNMAPGSYQKNIVFRVEPKIGIAVEIASVALEHHHHHH | soluble
5 | MVAVKREFELSHVFKDVSKLEDGNTFYGPEEEHFNVQWRIVLIHQKEDVAVFLRYLHPKNEQAPWKIDSEFTLKLSNSSGKSVTKTGSDIWNSYDALGFCDVFEWDSLLKDYLIDDVIIIEVAVKIKNMSGIPKKKLKSFERSNEEFSDVILAVGDKKFFVLRKFLASHSTYFETLLLGNFAEADKSEVKLQDINSTDFQNLMEVRYGEYAIDEETVDGILHLAHLYDMPFPIKRCEEFLVDSSEKSTKEKLKVAKKYQLENLKASCLAKINTLEEIKAALAGDLDEMDPSVVHALFRKSLALH | not soluble
6 | MGSDKIHHHHHHMAVRKAMKYSLGPVLWYWPKETLEEFYQQAATSSADVIYLGEAVCSKRRATKVGDWLEMAKSLAGSGKQIVLSTLALVQASSELGELKRYVENGEFLIEASDLGVVNMCAERKLPFVAGHALNCYNAVTLKILLKQGMMRWCMPVELSRDWLVNLLNQCDELGIRNQFEVEVLSYGHLPLAYSARCFTARSEDRPKDECETCCIKYPNGRNVLSQENQQVFVLNGIQTMSGYVYNLGNELASMQGLVDVVRLSPQGTDTFAMLDAFRANENGAAPLPLTANSDCNGYWRRLAGLELQA | not soluble
7 | GYCGPCPNNWICHRNNCYQFFNEEKTWNQSQASCLSQNSSLLKIYSKEEQDFLKLVKSYHWMGLVQIPANGSWQWEDGSSLSYNQLTLVEIPKGSCAVYGSSFKAYTEDCANLNTYICMKRAV | soluble
8 | MRSFPKAKEAFSEGEKVSFGVHRLHVGDAREVLASFPEASVHLVVTSPPYWTLKRYEDTPGQLGHIEDYEAFLDELDRVWREVFRLLVPGGRLVIVVGDVAVARRRFGRHLVFPLHADIQVRCRKLGFDNLNPIIWHKHTNASLEVEGRGVFLGKPYEPGAIIKTEIEYILMQRKPGGYRKPTQEQREKSRLPKEDFHRFFRQIWDDIPGESTKDHPAPFPLELAERLVRMFSFVGDVVLDPFAGTGTTLIAAARWGRRALGVELVPRYAQLAKERFAREVPGFSLEVLDGATHPRR | soluble
9 | MGKPVVAIVGRPNVGKSTIFNRIAGERISIVEDTPGVTRDRIYSSAEWLNYDFNLIDTGGIDIGDEPFLAQIRQQAEIAMDEADVIIFMVNGREGVTAADEEVAKILYRTKKPVVLAVNKLDNTEMRANIYDFYSLGFGEPYPISGTHGLGLGDLLDAVAEHFKNIPETKYNEEVIQFCLIGRPNVGKSSLVNAMLGEERVIVSNVAGTTRDAVDTSFTYNQQEFVIVDTAGMRKKGKVYETTEKYSVLRALKAIDRSEVVAVVLDGEEGIIEQDKRIAGYAHEAGKAVVIVVNKWDAVDKDESTMKEFEENIRDHFQFLDYAPILFMSALTKKRIHTLMPAIIKASENHSLRVQTNVLNDVIMDAVAMNPTPTHNGSRLKIYYATQVSVKPPSFVVFVNDPELMHFSYERFLENRIRDAFGFEGTPIKIFARARK | soluble
10 | MSLSDGDYDYLIKFLALGDSGVGKTSVLYQYTDGKFNSKFITTVGIDFREKRVVYRASGPDGATGRGQRIHLQLWDTAGQERFRSLTTAFFRDAMGFLLLFDLTNEQSFLNVRNWISQLQMHAYCENPDIVLCGNKSDLEDQRVVKEEEAIALAEKYGIPYFETSAANGTNISQAIEMLLDLIMKRMERCVDKSWIPEGVVRSNGHASTDQLSEEKEKGACGCEGHHHHHH | soluble
11 | MGSDKIHHHHHHMSTIIQNTLAPKVQNQLIHHLPALEQAELLSQAKLVQLNFADLLCQPGESYQYVYFPLTAFISLIAKLPKHPALEMGLIGYEGMLGATTLLSTRQVPSEAIIQGSGKAWRIPIATFEDLLAQSSSLRQILETYLYQLLCQLSQNAVCAHFHSVESRLARWLLMSHDRIQTNELFLTHQFLSDMLGVRRSSITEAAGELQASGCISYNRGRLYILDRQGLLARCCSCYHLMRT | not soluble
12 | MSKFNRIHLVVLDSVGIGAAPDADKFFNAGVADTDSDTLGHISEAAGLSVPNMAKIGLGNISRPIPLKTVPTEDNPTGYVTKLEEVSLGKDTMTGHWEIMGLNITEPFDTFWNGFPEEILTKIEEFSGRKIIREANKPYSGTAVIDDFGPRQMETGELIVYTSADPVLQIAAHEDIIPVEELYKICEYARSITLERPALLGRIIARPYVGDPGNFTRTANRHDYAVSPFQDTVLNKLADAGVPTYAVGKINDIFNGSGITNDMGHNKSNSHGIDTLIKTLQLPEFTKGFSFTNLVDFDANFGHRRDPEGYRDCLHEFDNRLPEIIANMKEDDLLLITADHGNDPTYAGTDHTREYIPLLAYSVSFTGNGLIPQGHFADISATVAENFGVDTAMIGESFLSHLK | not soluble
13 | MSLKVVFVSYEVFPFAKVGGLADVAGTLPKYLKKHGVDVTIVMPKHRIVEKNAEKFGYEIKKVAESLSVSHVKTDQKFDIYESVLPGSDVKTYFVANDYYFSAEDVYAGPDLGEQAIFFCAATLDLVKHLDLKPDIVHVNDWQTALIPVYLKTVYRDDPYFSRTATVLTIHNLGYQGVFDPKYLSFAGLPDYVYTIDGLEFYGQLNFLKGGIVFSDVINTVSPTYAEEIQTEEYGEKLDGVLRMRSKDLYGILNGIDYELYNPATDRYIYVNYDVNRLELKWENKVKLQEELGLPVNKETAVAGLISRLVPQKGLDLLVDVMDYLTLFDLQIVVLGTGDEQYENAFRKFQERYPDKVSANIKFDVELAQKIYAGADIFLMPSRYEPCGLGQMFSMRYGTIPVVRYTGGLADTVKEYDPQSMEGTGFGFKKYDSAHLLKAVSKALHFYYREKDHWRRIMTNAMNTDLSWDRSAKEYVDLYKKALAKVGREGHHHHHH | soluble
14 | MSLDSLDKSKLERMLDIKEAHREGHLTLEEAKERMKKEVGSISPEEFAAAEQLFKERDQDECQNEDVRTMLQLFEGLINPIRPDLPFGHPIDAYLRENDKAKELLDQADALLERTFIPNPWIELMETLMGYKLHFARKQNQLYSTLEQKGFDRPSTTMWTYDDHIRDEMNKAMSLLREKDYDSFPAAYKEMAIVLRDLMEKEELILYPTSLKLISDKEFEEMKHGDREIGFFLIDMPELDAPAKQSKEAHGQSFMAELGALLAKHGMGTGGQDDKAILDVAEGKLTLEQINLLFRHLPVDISFVDENELVCFYTDTKHRVFPRSKGVIGREVRNCHPPKSVHIVEEIIDKFRRGEQDRAEFWINKPGVFIYIVYVAIRDADGRFRGVMEMMQDCTRIRSLEGSRTLLTEGHHHHHH | soluble
15 | MSERMWGFGLTEEEASRSIREKMSINDSPTHGHDIHVTRDLVKHHLSKSDMLTDPSQEVLEERTRIQFIRWSHTRIFQVPSEVMDDVMQERIDQVRRSVSHLMCDSYNDPSFRTSCSEC | not soluble
16 | MELIRWAIELGESVHGNTYEELMPLLDYYYDRDHLKAYCIANLLLNMDVLDEDRERIELRRCIAAYYAGLYKVARKHANELVLKHPDVDLYKNNLRLMEVYLNKEYDYCLFICPKTYGSFIDIARALKWRLEQEGNTVIISETILENVKNTVVFGAHTYAYNPNLLPKDAIVYNLEQLYEGSPYAHPLYLILLKDRVIWDYSKQNIEWLKQKGVGKEIKHVEMNYAPTLEIKKDAFEDEIIEDIDILFIGALNPRRQAIFDHLKAIAPNLNIVFKNNAWGIVRNELIARAKIILNIHFYLSGILETPRVSYAVANKKFIISENSNPEDEVEWPGIVFTPYEKIIENVMKYIELPEERKRLAEKAYNHFEANESLGTLSMRDETK | not soluble
17 | MGQGQTKSEQKLSEQTLRKFYDAQLENQLIAENLKWAQQRAVDLLKVRDQLQWEVLAAATTTVVLLAAGSIYKRKDVIIPIVPLIMGCGYQYDVAHGDNRQLVRETAVELLKTPEELHMLPAITLRDIDEFRDSHKL | not soluble
18 | MGSSHHHHHHSSGENLYFQGMTDPAPPPTALAAAKARMRELAASYGAGLPGRDTHSLMHGLDGITLTFMPMGQRDGAYDPEHHVILINSQVRPERQRFTLAHEISHALLLGDDDLLSDLHDEYEGDRLEQVIETLCNVGAAALLMPAELIDDLLTRFGPTGRALAELARRADVSATSALYALAERTAPPVIYAVCALSRQEDEGEGGGAKELTVRASSASAGVKYSLSAGTPVPDDHPAALALDTRLPLAQDSYVPFRSGRRMPAYVDAFPERQRVLVSFALPAGRSEPDADKPEAPGDQS | soluble
19 | MGSDKIHHHHHHIEGPGTTENLKEFVTVDGKKDTQSGAFYLTTVGIRSATIFSAIKANFSDFQEVMSKKELMGDSSNSEYNRIQQYYMDSSKNAAIEQALKLAKVPYEMKFKGVYVLAMEDNSSFKGKIEVGDTVTGVDGKSFKSSEELMNYIKAQKVNQKVTVQFIQDGKAKEATGKLIELPTDKKAGIGIGLTDHTEIDSSIPVSIEAGDIGGPSAGLMFTLQTYEQLSHKDLRKGHEIAGTGTMNSQGIVGRIGGIDKKVVTASENGAEIFFAPDDEITSEMKKVEPKIKSNYQEAQEAAKKIGTKMKIVPVKTVQDALNYLEKLK | not soluble
20 | NKDMSFTVRGNYTFSQNIIDYYEENKLPYDYLSVTGKPFNILRGYIAEGLFSSKEEINTSADQSGFGRIRPGDIKYRDVNGDGIINDDDKVPLSYSNQLPRVMYGFGADFHWKDLTLSFLFKGSAKVDYYRSGLGNDAGWIPFYNGELGNVIKLANNPKNRWTPAWYSGTTATENPHAEFPRLSYGGNTNNSQLSSFWKRNGSFLRFQELSLKYNLKTPWIKKTGLSSVDLEFVANNLFTIDKVKYFDPEQASANGAAYPIPATYTFQVYLKF | not soluble
